For the experiment, the target named is T1, H3(1-15Y)K9me3 (Homo sapiens, H3K9me3).
T1 chain: ARTKQTARKSTGGKAY
The experiment in a line: ITC. On the technique in general: ITC needs no label: the signal is the heat of the interaction.

B1: Su(Var)205 17-76 (protein)
chain: not shown
As a reminder, the Kd is the constant that tells how readily two partners part at equilibrium. Read a low Kd as a tighter complex. B1 yielded a Kd of 300 nM. This counts as sub-micromolar.

These data come from article PMC3265130 (2011).
